Legend:
[1] = molecular target: carrier-free recombinant human TGF-β1 (human); assay: in vitro binding, RP-HPLC, TGF-β1 quantified by ALP-inducing activity of HPDL cells; purified amelogenin mixed with CF-hTGF-β1 or rh-latent TGF-β1, fractions from RP-HPLC tested in the ALP-HPDL system; ng per mg of amelogenin calculated from standard CF-hTGF-β1 (0.3 ng mL^-1), after dilution correction; details in the Supplementary Methods
[2] = molecular target: TGF-β1 of the porcine enamel matrix (porcine (endogenous in porcine enamel)); assay: co-elution on RP-HPLC, TGF-β1 quantified by ALP-inducing activity of HPDL cells; amelogenins as purified from enamel (before the in vitro binding); ng of TGF-β1 per mg of amelogenin calculated from standard CF-hTGF-β1 (0.3 ng mL^-1), after dilution correction; complexes formed in vivo
Chain of TGF-β1 of the porcine enamel matrix (porcine (endogenous in porcine enamel)) (P07200 279-390): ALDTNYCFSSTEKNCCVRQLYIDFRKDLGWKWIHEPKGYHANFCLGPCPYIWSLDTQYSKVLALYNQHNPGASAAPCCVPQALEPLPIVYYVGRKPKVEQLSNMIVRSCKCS

Chain of carrier-free recombinant human TGF-β1 (human) (P01137 279-390): as the sequence (P07200 279-390) above

B1: P173 amelogenin (natural protein)
chain: MPLPPHPGHPGYINFSYEVLTPLKWYQNMIRHPYTSYGYEPMGGWLHHQIIPVVSQQTPQSHALQPHHHIPMVPAQQPGIPQQPMMPLPGQHSMTPTQHHQPNLPLPAQQPFQPQPVQPQPHQPLQPQSPMHPIQPLLPQPPLPPMFSMQSLLPDLPLEAWPATDKTKREEVD
bound TGF-β1, ng against 1 mg of amelogenin [1]: 1.18 ng | original TGF-β1, ng against 1 mg of amelogenin [2]: 0.345 ng
